The text below walks through data of PMC12817906, “SVCV phosphoprotein hijacks phase separation to immobilize the IRF3-TBK1 signaling axis and suppress interferon antiviral immunity” (Journal of Virology, 2025).

In data set [1] the target is mCherry-tagged zebrafish TBK1 protein (zebrafish). Kind of data set: MST; Monolith NT.115; mCherry-tagged TBK1 as the fluorescent protein, unlabeled SVCV-P or IRF3 at 16 concentrations, protein storage buffer, room temperature 10 min, 40% LED, medium MST power.
For data set [2], the target named is purified recombinant zebrafish IRF3 (His-tagged) (zebrafish). Put plainly: MST; Monolith NT.115; homotypic titration (SVCV-P with SVCV-P, IRF3 with IRF3), labeled protein with unlabeled ligand at 16 concentrations, room temperature; which label was used is not told.
Data set [3] addresses T1, mCherry-tagged zebrafish TBK1 protein (zebrafish, UniProt A0ACM8QAS8 1-727).
T1 construct: also called mCherry-TBK1; pFastBac1-mCherry-His-TBK1; source: Sf9 (baculovirus), purified (Ni-NTA)
T1 sequence: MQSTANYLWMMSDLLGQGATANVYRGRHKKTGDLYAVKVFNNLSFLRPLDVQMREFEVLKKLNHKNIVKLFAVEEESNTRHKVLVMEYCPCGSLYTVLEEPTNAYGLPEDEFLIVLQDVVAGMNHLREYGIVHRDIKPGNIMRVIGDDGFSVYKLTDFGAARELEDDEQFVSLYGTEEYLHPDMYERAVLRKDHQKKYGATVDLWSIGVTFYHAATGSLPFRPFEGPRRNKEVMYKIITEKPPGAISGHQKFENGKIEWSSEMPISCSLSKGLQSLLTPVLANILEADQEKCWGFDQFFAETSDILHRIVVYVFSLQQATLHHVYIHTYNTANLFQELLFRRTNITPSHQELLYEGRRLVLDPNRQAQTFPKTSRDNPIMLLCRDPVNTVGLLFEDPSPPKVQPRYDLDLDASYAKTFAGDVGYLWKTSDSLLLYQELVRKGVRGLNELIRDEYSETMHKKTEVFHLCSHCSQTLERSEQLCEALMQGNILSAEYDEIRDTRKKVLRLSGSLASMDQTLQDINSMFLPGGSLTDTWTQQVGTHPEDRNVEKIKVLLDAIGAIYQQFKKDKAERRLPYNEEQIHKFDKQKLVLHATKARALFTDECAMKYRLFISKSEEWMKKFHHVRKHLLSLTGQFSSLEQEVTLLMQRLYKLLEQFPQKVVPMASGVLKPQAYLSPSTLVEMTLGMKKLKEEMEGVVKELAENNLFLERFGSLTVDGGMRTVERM
Put plainly: MST; Monolith NT.115; mCherry-tagged TBK1 as the fluorescent protein, unlabeled SVCV-P or IRF3 at 16 concentrations, protein storage buffer, room temperature 10 min, 40% LED, medium MST power. The settings on record: both partners purified.

Data set [4] deals with the molecule itself. Kind of data set: MST; Monolith NT.115; homotypic titration (SVCV-P with SVCV-P, IRF3 with IRF3), labeled protein with unlabeled ligand at 16 concentrations, room temperature; which label was used is not told.

Where “and” joins values, the source holds several entries; their conditions need not be identical. Identical values can stand only once.

As usually defined, the Kd is a measure of binding affinity in units of concentration. Consider “purified recombinant zebrafish IRF3 (His-tagged) (natural protein)”, for which the results for the Kd in data set [1] and in data set [2] were 81.7 µM and 70 µM, respectively.

B1: purified recombinant SVCV-P (His-tagged) (natural protein)
chain: MSLHSKLSESLKAYADLDKTVKEIEEQVSSMEEPVPKTVKYVTFEENLSEEEWESDSGDDDEDSIDDSLIPDYLRESSSITVDEDEEDQKEDMEEHLPTVSWEEEPTGIDIGFGPGIVMPSVSNHEGGTYVRYNGLGGVDPNCKDLISKMMRSLIGQIGNKYGYDIDLFDYQGDFLEVFLPHKPSKEDVRPDIRIGKKNEEGTSKQVSKPRGKEKIVLKTGDECGRFPMNKEAKKREPEGLWEVMKVLSVQFDPWKEDEPPLSLTIRDLFISESEFRLHCNHSQTEREMALVGIKLRRLYNKLYQKYRL
notes: phosphoprotein (P) of spring viremia of carp virus; The MST methods say only 'purified SVCV-P'; the His-only construct is surmised (EGFP-GST, EGFP-His and baculovirus EGFP-His forms were also made); also called pET28a-SVCV-P-His; source: E. coli BL21 (DE3), purified (Ni-NTA)
In the case of B1, the dissociation constant Kd in data set [3] is 8.34 µM and 2.98 µM; in data set [4], 30.4 µM.
